Test: label from the status in PepcDB records
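Also: failed if final PepcDB status was selected cloned or expressed and not failed if soluble or beyond.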

Sequence | protein production
MPIQRREFIAAIGTGALATTAGCAQSGEGSGQTEAETEAESGGGGQPGVAGETLTLTTTTSTYDTGLLDEIHPDFEDMYGVSVDAVAQGTGAALESARNGDSDIVMVHARGLEDDFMRNGYGINRRDLMFNDFVIVGPEDDPAGIQGMGSATEALTTIAESESQFVSRGDNSGTHTKELNLWEAAGTEPGGNWYQETGTGMGEALNIANQQGAYTLSDRGTYISQRSEIDLVILVQGPIEDGPEILANPYGIMAVNPGVHDNANYDLAMAYIGWITSPGTQDAISNYQVNGEQLFFPEAVSEDPNFQQYVPEGWSSDAGE | failed
MPIRVYTKVELALLYAPHLSENAALNNLSRWMRHNKLLMAALEEVGYYKYRHSFTPKEVRLIFRYMGEPGALEHHHHHH | not failed
MPITVHAYTSLDNEEIRTQLERLYDTSPEFGDGQDAIEQLEQNLAQYTTVYTAEFNTKIIGAIWCTGQGESKILEYIVVHPANRGRGIAERLVSEVCRMEEAKGVTMFEPGCGAIHRCLAHIGKLSV | failed
MPKAAWEPEYHRVFVDLCVEQKMLGNQPGTQHILKPFLQRTGARFTRNQLKNHWDTMIKQWKIWCRLVQCSDMQWDPQTNTFGANDQDWANYLHVNPEAGQYRLNPPSFLEKLELIFEDSNLDDEGTSGSKRKRIAKHRDEDNDNTGDEEDTQSASNFSSPQSKGYWSPSSHELFVDLLFQEALKGNRPDSHYPKETWKMILETINQNTGKSFTRPQLKNHWDCTRKSWKIWCQVIGAPVMKWDATSRTFGATDEDWKNYLKENHRAAPFRRKQLPHADKLATIFKGLIEPGKAYFRSYRRRVLDHHSESPQLHDPTPLSTLYTNEPVSGSEGGADEDDNDDDDEQPTPQHRRFNSVGFAESRLQDVEIVTPGCHRLKTELMKESPVSASVRQYEYTIGECIECLDSMEEVEQGSDLYLFALDLFVKKEYREIFLLLKNSSLRMSWLLRLRSGGLTIAA | failed
MPKANLEIIRSTYEGSASSNAKHLAEALSEKVEWTEAEGFPYGGTYIGVEAIMENVFSRLGSEWNDYKASVNMYHEVSGKDVIIAEGMYSGVYKDTGKSFEAEFVHVWQLENGKIVKFKQYVDSHLVREAMKS | not failed
MPKASLIIRERGLPKREVLLSPDRQWTIGRQLDCSIRLTDAYVSRLHAVINAFLFRGQPLYFIRDAHSRNGTFLNGFPLQHSTLLHHEDVIGVGTTLLVFYYPDMFREISLDECPLEHHHHHH | not failed
MPKFDVSKSDLERLIGRSFSIEEWEDLVLYAKCELDDVWEENGKVYFKLDSKDTNRPDLWSAEGVARQIKWALGIEKGLPKYEVKKSNVTVYVDEKLKDIRPYGVYAIVEGLRLDEDSLSQMIQLQEKIALTFGRRRREVAIGIFDFDKIKPPIYYKAAEKTEKFAPLGYKEEMTLEEILEKHEKGREYGHLIKDKQFYPLLIDSEGNVLSMPPIINSEFTGRVTTDTKNVFIDVTGWKLEKVMLALNVMVTALAERGGKIRSVRVVYKDFEIETPDLTPKEFEVELDYIRKLSGLELNDGEIKELLEKMMYEVEISRGRAKLKYPAFRDDIMHARDILEDVLIAYGYNNIEPEEPKLAVQGRGDPFKDFEDAIRDLMVGFGLQEVMTFNLTNKEVQFKKMNIPEEEIVEIANPISQRWSALRKWILPSLMEFLSNNTHEEYPQRIFEVGLATLIDESRETKTVSEPKLAVALAGTGYTFTNAKEILDALMRHLGFEYEIEEVEHGSFIPGRAGKIIVNGRDIGIIGEVHPQVLENWNIEVPVVAFEIFLRPLYRH | not failed
MPKFYCDYCDTYLTHDSPSVRKTHCSGRKHKENVKDYYQKWMEEQAQSLIDKTTAAFQQGK | not failed
MPKRKNTSIKDYKLKSGKKRYMFQIYLGTNSNGKPIITRRRGFKSYAEAEAVFNKMSQIKPDNFVKQKQIKVAELRELWFENYKTQVKESTANKNKQVFDNHVIPAFGNQYIDKITVAELQKWADRKAKQIVKYRDAINEFNALFEYGIRLNYVSENPLKRIIIPKKTSRPRRDTEHNVYTQDELNQFLEVAKDYGLVPYTYFKLLSATGLRKSEALALTWSDINLTAGTLSVNKTLAYGLNGKTIIQPPKSPKSKRILPISDGLKEVLIDYKRKQKIISKELFHTNKGTYLRISKPDQWLKSIYAKDHEEKAEYAKKYNLKEPQPDLRHITVHGFRHTFATLLIAETNVKPKTVQMLLGHENIQMTLDIYTHINKKNTEDAVNALKQLNI | failed
MPKRSKEDTEITIQKIMDAVVDQLLRLGYDKMSYTTLSQQTGVSRTGISHHFPKKTDFTAALDGRIFKMFIEHLEFEKGLDAFSQSWIKALEDSEFLAILRLLFHHIVTSESAHEFAANGIDRLYKMVESQFGSGGDKELEWLIGRSLIQMSK | not failed
MPKSMGMAVAVPVTLAVIAAGGAGVGAYMYNERNLALEELARQSELSGSIATLETEVAGLTSQVKAAEGQLGDLNGQLEAAKAELAEVQGQHDRLSSELEPMRAEIASFDSRKAEAEESTAKAIADFQAADARLKELTDREDNLRATVSKLAAEVQDLDRRMEGLRAESGALVAAAQSAARQRTDLQGMVETLAGLLATRSEELVQLERRIGEQDLKVPAAGPAPLAAAAGAASQAPDGAGAAEPAAKEAETAAPETDAAGQTASQAEGSEAGSQPAAEPEAAEADGGNGAAEEPEAGAQDEGADAAAEPAPTGASEDAPDDAAAEGSTAEAEAAPEASGSTAGASDDAASQGSTAASEEPEAAPPSEAPAKAEAPDLGAGTYGIGPLFATFSPDGSFTMRNVELDTSASGKWEVTDGLLTLSDPEGGSGSSSFPMLCQLVKEAEALKLAKAQTGSCPLAGMEIARR | failed
MPKWTPYKRHPGVYEYQTKKGKRFGVRRTYDDAMGERKEFSKSGFIHWQDADIEIKRFEAKLVSGEVSGSLANRMTIDQYYQQMAKRKMKMGIWRESTARANGNFYSKYLKPAFGKTPLQDVSRAKYQRFLDELSQSGLALTTVHTIDAVMKSIMNAAEFEDVIDKNRLRGMQINGKAPRNKDLEPHSFELWLNAAKTNLDKYEMALIITATLGLRRGEVMGLRNESIKISHDQINDADVAQISIDMQRNTNELNGGPLKTKSSYRTIWAFGKTVDHLKYAMITADNLRQRNNIQAEKHWLWLNNDGNPLHPTHLNRLMRRVSNRSGVEVYPHLLRHYFATQAIAANKPQIDVMHYLGHKNLQMTADYTRSTKAASLNVFNSIDKFL | failed
MPLAIIPWFELPSASLGPFTLQSFGVLSALGILAAVQLSARGAKQLGKDPQVILDFAVVGVLAGVVVGHLAHLFFYHPEELQDPLRIFKFWEGLSSMGGLAGGMIAAAVYFRRKRVRFTAYADAFALGVAPGWGIARVGCFTVHDHPGRLTDFFLAVRFPDGPRHDLGLYEAILLLSLGAVLWALHRRDVLRGRLLPLLALVYGIGRFLLDFLRATDVSYADARHLGLTFAQYFAVALVAYAVWGFARRPSDEERVRVSTGVGRR | failed
MPLAVLERDGSFLGVLTPHSIVEVLLERERRLLEDARKINAEIRREADKAIEQLDIKAHYDTVTGLPNRQLFCDRLLQALAAHERDGNPVVLLFLDVDNFKSINDSLGHLVGDRLLRATAERIRTAVRDGDTVARIGGDEFTILLNGAKDTLNGALVAQKILDGLAQPFVFGAQQIVISVSIGIAVSPADGETMEQLLRNADTAMYHAKSRGKNNYQFFSPELNVQAYRRQEIERNLRCALLQGELGLRYAPRVDLRSGRIVALEVCPFWLSSELGDVPPDDFIPVAEETGLIVQIGIWAFRTACAHAAVWRTQGLADRCLSFRLSQRELDDPQFGDRIMSLLDGCGLEPENLQFELSERMLMTHAAHTLAVLQELSNRGIRFSVGDFGTGNASLRRLRRFPIDELKIDLSSVRDIEPDSDDAAVITAMIAMAKSLRMDVVAVGVETPEHVAFLLERGCRHGQGRLIGARLPPERIAALLAGDAVDLFVALEHHHHHH | failed
MPLGSSAPPRMGGHTALAAALWPRRTDGFSAWLRMAVLIAFGSVLLALSAKVNLPLPLVPMTLQTLMVVLIGAAYGARLGAATVLAYLAEGAAGLPVFAGPVGGLAPLLGPTAGYLAGFVVAAVLVGWCADRGFDRSVAKLFAAMLAGHLAILTLGFAWLAFGLHLGLAKAWWVGVVPFLAGSLVKSALGAALLPAVRRIVDRQR | failed
MPLHRTPRTGPEPRTLALLAGAGLAAGAAAWAVSRSRENPVVFRPNDDAPDRVARHPEATMPTGRTVTINRPRSELFAFWRDFSNLPQFMESVEHVTVVGDVSRWTLAAPFGRKITLETRIVEEVPDRLIAWRSTDGSDVRAEGAVTFRDAPAGRGTEVEAVVAYVPAGGEAGRLIARLFRLAPAMQGRRELRRFKMLMEAGEIATSRNRKD | failed
